These results are taken from the Immune Epitope Database (IEDB).

Among the targets are HLA-A*03:01; HLA-A*11:01; HLA-A*31:01; HLA-A*33:01; HLA-A*68:01.
Holding throughout (assay): IEDB peptide-MHC binding, purified MHC/competitive/radioactivity; filed as Kd, often an IC50 or EC50 that approximates it; ≥ and ≤ were set here for values at or beyond the usual limits of such assays
Where [1] appears, read: source organism: Vaccinia virus WR.
[2] abbreviates: source organism: SARS coronavirus Tor2.
Where [3] appears, read: source organism: Lymphocytic choriomeningitis virus (strain Armstrong).
Setting [4] is: source organism: Lassa virus GA391.

Turning to KLFKKTDFK, the Kd – broadly, the constant that tells how readily two partners part at equilibrium – was 8.46 nM with HLA-A*03:01 (setting [1]); 8.86 nM in the experiment with HLA-A*11:01 (setting [1]); 8.08 nM with HLA-A*31:01 (setting [1]); 13900 nM with HLA-A*33:01 (setting [1]); 6280 nM in the experiment with HLA-A*68:01 (setting [1]).

For the sequence EVGSIRCVK, the Kd in the experiment with HLA-A*03:01 (setting [1]) was 543 nM; in the experiment with HLA-A*11:01 (setting [1]), 332 nM; with HLA-A*31:01 (setting [1]), 5910 nM; in the experiment with HLA-A*33:01 (setting [1]) it was 83 nM; with HLA-A*68:01 (setting [1]), 1.19 nM.

NQNLIPSTVK: the dissociation constant (Kd) was 14100 nM in the experiment with HLA-A*03:01 (setting [1]); 360 nM with HLA-A*11:01 (setting [1]); at least 24800 nM in the experiment with HLA-A*31:01 (setting [1]); at least 70000 nM with HLA-A*33:01 (setting [1]); 406 nM with HLA-A*68:01 (setting [1]).

Turning to DVFHLYLQY, the dissociation constant (Kd) with HLA-A*03:01 (setting [2]) stood at 5470 nM; in the experiment with HLA-A*11:01 (setting [2]), 10600 nM; with HLA-A*31:01 (setting [2]) it was 4240 nM; with HLA-A*33:01 (setting [2]), 5450 nM; with HLA-A*68:01 (setting [2]) it was 188 nM.

KFLELKRGIY: the Kd with HLA-A*03:01 (setting [1]) is 1240 nM; with HLA-A*11:01 (setting [1]), at least 69800 nM; with HLA-A*31:01 (setting [1]) it was 22.6 nM; with HLA-A*33:01 (setting [1]), at least 70000 nM; in the experiment with HLA-A*68:01 (setting [1]), 10900 nM.

For the sequence TVCTVCGMWK, the dissociation constant Kd in the experiment with HLA-A*03:01 (setting [2]) was determined as 24 nM; with HLA-A*11:01 (setting [2]), 5.49 nM; in the experiment with HLA-A*31:01 (setting [2]), 188 nM; with HLA-A*33:01 (setting [2]), 587 nM; with HLA-A*68:01 (setting [2]), 52.2 nM.

Consider VFSFWLLCK, for which the dissociation constant (Kd) with HLA-A*03:01 (setting [1]) is 281 nM; in the experiment with HLA-A*11:01 (setting [1]) it was 11.9 nM; in the experiment with HLA-A*31:01 (setting [1]), 872 nM; with HLA-A*33:01 (setting [1]) it was 4130 nM; in the experiment with HLA-A*68:01 (setting [1]), 298 nM.

In the case of YIPGTSVIR, the Kd in the experiment with HLA-A*03:01 (setting [1]) is at least 78000 nM; with HLA-A*11:01 (setting [1]) it was at least 77900 nM; with HLA-A*31:01 (setting [1]), 664 nM; with HLA-A*33:01 (setting [1]) it was 2900 nM; in the experiment with HLA-A*68:01 (setting [1]) it was 40.4 nM.

Regarding AIITPVVFY, the Kd with HLA-A*03:01 (setting [1]) is 409 nM; with HLA-A*11:01 (setting [1]), 0.362 nM; with HLA-A*31:01 (setting [1]) it was at least 10000 nM; in the experiment with HLA-A*33:01 (setting [1]), at least 45500 nM; with HLA-A*68:01 (setting [1]), 1470 nM.

For RQQLEDIFMR, the Kd with HLA-A*03:01 (setting [1]) was 4830 nM; with HLA-A*11:01 (setting [1]), 10200 nM; with HLA-A*31:01 (setting [1]), 7000 nM; in the experiment with HLA-A*33:01 (setting [1]) it was at least 58800 nM; in the experiment with HLA-A*68:01 (setting [1]), 2560 nM.

PLHKYCVNLY: the Kd in the experiment with HLA-A*03:01 (setting [1]) is at least 70100 nM; with HLA-A*11:01 (setting [1]), at least 25600 nM; in the experiment with HLA-A*31:01 (setting [1]), at least 23200 nM; with HLA-A*33:01 (setting [1]), 14400 nM; in the experiment with HLA-A*68:01 (setting [1]), 6570 nM.

For the sequence SVVNARLRAK, the equilibrium dissociation constant (Kd) is 65.5 nM in the experiment with HLA-A*03:01 (setting [2]); 89.9 nM in the experiment with HLA-A*11:01 (setting [2]); 1370 nM with HLA-A*31:01 (setting [2]); at least 33700 nM in the experiment with HLA-A*33:01 (setting [2]); 250 nM in the experiment with HLA-A*68:01 (setting [2]).

With VVKWKRDEH, the Kd was at least 37200 nM with HLA-A*03:01 (setting [3]); 187 nM in the experiment with HLA-A*11:01 (setting [3]); at least 34800 nM with HLA-A*31:01 (setting [3]); at least 77700 nM in the experiment with HLA-A*33:01 (setting [3]); at least 77600 nM in the experiment with HLA-A*68:01 (setting [3]).

With NTILLSDKGK, the Kd is 96.6 nM with HLA-A*03:01 (setting [1]); 190 nM with HLA-A*11:01 (setting [1]); at least 20300 nM in the experiment with HLA-A*31:01 (setting [1]); 12400 nM with HLA-A*33:01 (setting [1]); 1.45 nM with HLA-A*68:01 (setting [1]).

With NSSIISLFY, the dissociation constant Kd with HLA-A*03:01 (setting [1]) was 56.7 nM; with HLA-A*11:01 (setting [1]) it was 44.6 nM; in the experiment with HLA-A*31:01 (setting [1]), 5260 nM; with HLA-A*33:01 (setting [1]) it was 7080 nM; in the experiment with HLA-A*68:01 (setting [1]), 125 nM.

For SLMSIISTFH, the equilibrium dissociation constant (Kd) with HLA-A*03:01 (setting [4]) is 850 nM; with HLA-A*11:01 (setting [4]) it was 2280 nM; with HLA-A*31:01 (setting [4]) it was 3740 nM; with HLA-A*33:01 (setting [4]) it was at least 25000 nM; with HLA-A*68:01 (setting [4]), 3350 nM.

As for PMPYMISTY, the dissociation constant Kd with HLA-A*03:01 (setting [1]) is at least 45300 nM; with HLA-A*11:01 (setting [1]) it was at least 42100 nM; with HLA-A*31:01 (setting [1]), at least 34900 nM; with HLA-A*33:01 (setting [1]) it was at least 77700 nM; with HLA-A*68:01 (setting [1]), 1340 nM.

For QSYRQYRNY, the equilibrium dissociation constant (Kd) with HLA-A*03:01 (setting [1]) was 2560 nM; with HLA-A*11:01 (setting [1]) it was 1600 nM; with HLA-A*31:01 (setting [1]) it was 2270 nM; in the experiment with HLA-A*33:01 (setting [1]), 109 nM; with HLA-A*68:01 (setting [1]) it was 17100 nM.

In the case of ELQSVLVTTY, the Kd in the experiment with HLA-A*03:01 (setting [1]) is 2000 nM; with HLA-A*11:01 (setting [1]), 603 nM; with HLA-A*31:01 (setting [1]) it was 16100 nM; with HLA-A*33:01 (setting [1]), at least 61800 nM; with HLA-A*68:01 (setting [1]), 1480 nM.

For FMRDWNSKY, the Kd with HLA-A*03:01 (setting [1]) is 8370 nM; with HLA-A*11:01 (setting [1]), at least 77900 nM; in the experiment with HLA-A*31:01 (setting [1]) it was at least 77900 nM; in the experiment with HLA-A*33:01 (setting [1]) it was at least 66300 nM; in the experiment with HLA-A*68:01 (setting [1]), at least 77700 nM.

In the case of VLMHPDFCK, the Kd was found to be 8.68 nM with HLA-A*03:01 (setting [1]); 4.33 nM in the experiment with HLA-A*11:01 (setting [1]); 227 nM in the experiment with HLA-A*31:01 (setting [1]); 1380 nM in the experiment with HLA-A*33:01 (setting [1]); 259 nM with HLA-A*68:01 (setting [1]).

Take QALNSVANR: the dissociation constant Kd is at least 20200 nM in the experiment with HLA-A*03:01 (setting [1]); 845 nM in the experiment with HLA-A*11:01 (setting [1]); 12 nM in the experiment with HLA-A*31:01 (setting [1]); 104 nM with HLA-A*33:01 (setting [1]); 55.7 nM with HLA-A*68:01 (setting [1]).

Take CIPSRSKMLK: the Kd in the experiment with HLA-A*03:01 (setting [1]) stood at 1.09 nM; with HLA-A*11:01 (setting [1]), 4.27 nM; in the experiment with HLA-A*31:01 (setting [1]), 64.5 nM; in the experiment with HLA-A*33:01 (setting [1]), 63.2 nM; with HLA-A*68:01 (setting [1]), 27.9 nM.
